The values below come from the supplement of paper PMC9112550, “Optimization of the antimicrobial peptide Bac7 by deep mutational scanning” (BMC Biology, 2022).

For the data set, the system named is Escherichia coli TOP10. Kind of data set: shrunken log2 fold change of peptide-encoding DNA abundance (4.5 h post-induction vs induction); higher = less antimicrobial activity (less host growth inhibition). The note with it: time post-induction: 4.5 h; library: site-saturation at positions 5, 18, 19, 20.
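Further: peptides expressed intracellularly from a pBAD plasmid library in pooled LB shake-flask culture, induced with 0.3% L-arabinose, DNA abundance read by NGS, three biological replicates, DESeq2 with apeglm shrinkage.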

Regarding RRIRKRPPRLPRPRPRPQAVPRP, the “shrunken log2 fold change” value stood at 0.0562.
Turning to RRIRQRPPRLPRPRPRPYGCPRP, the “shrunken log2 fold change” value is -0.00141.
Consider RRIRIRPPRLPRPRPRPCCMPRP, for which the “shrunken log2 fold change” value was -0.614.
In the case of RRIRWRPPRLPRPRPRPRYIPRP, the “shrunken log2 fold change” value is -0.665.
In the case of RRIRRRPPRLPRPRPRPPYVPRP, the “shrunken log2 fold change” value worked out at 0.181.
For the sequence RRIRHRPPRLPRPRPRPQFSPRP, the “shrunken log2 fold change” value was -0.139.
As to RRIRVRPPRLPRPRPRPTFEPRP, the “shrunken log2 fold change” value is -0.106.
As to RRIRDRPPRLPRPRPRPRISPRP, the “shrunken log2 fold change” value was found to be 0.0345.
In the case of RRIRMRPPRLPRPRPRPLIIPRP, the “shrunken log2 fold change” value was -0.249.
The value for RRIRGRPPRLPRPRPRPVVHPRP was 0.254; that for RRIRLRPPRLPRPRPRPLQYPRP was -0.316; that for RRIRDRPPRLPRPRPRPLDHPRP was 0.0841.
The same measure for RRIRCRPPRLPRPRPRPWPDPRP: 0.0862; for RRIRRRPPRLPRPRPRPLKRPRP: 0.161; for RRIRMRPPRLPRPRPRPRHSPRP: 0.0596.
For RRIRVRPPRLPRPRPRPLSQPRP, the “shrunken log2 fold change” value was -0.032.
The value for RRIRCRPPRLPRPRPRPCNIPRP was -0.3.
In the case of RRIRQRPPRLPRPRPRPCWQPRP, the “shrunken log2 fold change” value was -0.0325.
With RRIRARPPRLPRPRPRPKHEPRP, the “shrunken log2 fold change” value was 0.529.
RRIRHRPPRLPRPRPRPYCTPRP: the “shrunken log2 fold change” value is -0.18.
The value for RRIRARPPRLPRPRPRPLRWPRP was 0.809; that for RRIRNRPPRLPRPRPRPRVIPRP was -0.21.
In the case of RRIRCRPPRLPRPRPRPDFLPRP, the “shrunken log2 fold change” value was -0.657.
Take RRIRSRPPRLPRPRPRPKTNPRP: the “shrunken log2 fold change” value was 0.00294.
The value for RRIRNRPPRLPRPRPRPHTGPRP was -0.313; that for RRIRVRPPRLPRPRPRPQKKPRP was -0.117.
The value for RRIRQRPPRLPRPRPRPKVKPRP was -0.223; that for RRIRCRPPRLPRPRPRPQPNPRP was 0.0742.
Regarding RRIRWRPPRLPRPRPRPPKSPRP, the “shrunken log2 fold change” value came out at 0.789.
For the sequence RRIRARPPRLPRPRPRPYNAPRP, the “shrunken log2 fold change” value was -1.2.
For RRIRGRPPRLPRPRPRPYGEPRP, the “shrunken log2 fold change” value turned out to be 0.398.
For the sequence RRIRARPPRLPRPRPRPYPYPRP, the “shrunken log2 fold change” value is -0.152.
For RRIRSRPPRLPRPRPRPIPSPRP, the “shrunken log2 fold change” value is -0.00523.
RRIRLRPPRLPRPRPRPINCPRP: the “shrunken log2 fold change” value was -0.0463.
RRIRKRPPRLPRPRPRPCDLPRP: the “shrunken log2 fold change” value is 0.209.
Take RRIRCRPPRLPRPRPRPNRAPRP: the “shrunken log2 fold change” value was determined as 0.00805.
On to RRIRQRPPRLPRPRPRPFCEPRP, for which the “shrunken log2 fold change” value is -0.0314.
In the case of RRIRVRPPRLPRPRPRPAASPRP, the “shrunken log2 fold change” value turned out to be 0.267.
Take RRIRARPPRLPRPRPRPDCWPRP: the “shrunken log2 fold change” value turned out to be 1.21.
Consider RRIRARPPRLPRPRPRPIDWPRP, for which the “shrunken log2 fold change” value amounted to 0.0607.
On to RRIRWRPPRLPRPRPRPISHPRP, for which the “shrunken log2 fold change” value is -0.24.
Consider RRIRARPPRLPRPRPRPWIHPRP, for which the “shrunken log2 fold change” value was -0.264.
As for RRIRIRPPRLPRPRPRPNCKPRP, the “shrunken log2 fold change” value was -0.658.
RRIRGRPPRLPRPRPRPHDGPRP: the “shrunken log2 fold change” value stood at 0.0288.
Turning to RRIRARPPRLPRPRPRPPIWPRP, the “shrunken log2 fold change” value was found to be 0.507.
In the case of RRIRGRPPRLPRPRPRPQRHPRP, the “shrunken log2 fold change” value amounted to 0.338.
Consider RRIRDRPPRLPRPRPRPDGSPRP, for which the “shrunken log2 fold change” value came to 0.0891.
Consider RRIRGRPPRLPRPRPRPGRRPRP, for which the “shrunken log2 fold change” value worked out at 0.849.
On to RRIRYRPPRLPRPRPRPVAHPRP, for which the “shrunken log2 fold change” value was -0.419.
Take RRIRWRPPRLPRPRPRPQYIPRP: the “shrunken log2 fold change” value is -0.944.
For the sequence RRIRGRPPRLPRPRPRPRGNPRP, the “shrunken log2 fold change” value is 0.995.
On to RRIRCRPPRLPRPRPRPFKVPRP, for which the “shrunken log2 fold change” value was -0.0177.
With RRIRTRPPRLPRPRPRPSQRPRP, the “shrunken log2 fold change” value turned out to be 0.0168.
In the case of RRIRFRPPRLPRPRPRPNYKPRP, the “shrunken log2 fold change” value was -0.735.
The same measure for RRIRIRPPRLPRPRPRPSLNPRP: -0.595; for RRIRMRPPRLPRPRPRPQFAPRP: 0.0822; for RRIRPRPPRLPRPRPRPRMFPRP: 0.0598.
Take RRIRSRPPRLPRPRPRPYFVPRP: the “shrunken log2 fold change” value is -1.14.
Consider RRIRMRPPRLPRPRPRPIAFPRP, for which the “shrunken log2 fold change” value is -0.0147.
As for RRIRKRPPRLPRPRPRPIHQPRP, the “shrunken log2 fold change” value is -0.0102.
The same measure for RRIRARPPRLPRPRPRPNANPRP: 0.49; for RRIRLRPPRLPRPRPRPVAWPRP: 0.225.
RRIRCRPPRLPRPRPRPEDMPRP: the “shrunken log2 fold change” value is 0.176.
The value for RRIRERPPRLPRPRPRPVGIPRP was 0.144.
As for RRIRHRPPRLPRPRPRPCVNPRP, the “shrunken log2 fold change” value is -0.166.
The same measure for RRIRCRPPRLPRPRPRPQSVPRP: -0.125; for RRIRIRPPRLPRPRPRPFLWPRP: -0.0429; for RRIRYRPPRLPRPRPRPQPTPRP: 0.0156.
As for RRIRYRPPRLPRPRPRPAFIPRP, the “shrunken log2 fold change” value was -0.24.
As to RRIRGRPPRLPRPRPRPGFCPRP, the “shrunken log2 fold change” value came to 0.925.
RRIRIRPPRLPRPRPRPIISPRP: the “shrunken log2 fold change” value was -0.101.
In the case of RRIRVRPPRLPRPRPRPTLPPRP, the “shrunken log2 fold change” value worked out at 0.335.
On to RRIRHRPPRLPRPRPRPCTHPRP, for which the “shrunken log2 fold change” value was -0.192.
The same measure for RRIRARPPRLPRPRPRPGFDPRP: 0.719.
The value for RRIRCRPPRLPRPRPRPKCNPRP was -0.201.
In the case of RRIRNRPPRLPRPRPRPLNLPRP, the “shrunken log2 fold change” value is -0.25.
Regarding RRIRSRPPRLPRPRPRPAWDPRP, the “shrunken log2 fold change” value turned out to be 0.281.
As to RRIRIRPPRLPRPRPRPVTWPRP, the “shrunken log2 fold change” value was -0.372.
The value for RRIRYRPPRLPRPRPRPFIEPRP was -1.2; that for RRIRFRPPRLPRPRPRPCNMPRP was -1.46.
For RRIRTRPPRLPRPRPRPQWQPRP, the “shrunken log2 fold change” value was 0.0822.
Turning to RRIRVRPPRLPRPRPRPDDVPRP, the “shrunken log2 fold change” value was -0.297.
The same measure for RRIRCRPPRLPRPRPRPSAKPRP: 0.189; for RRIRKRPPRLPRPRPRPRWGPRP: 0.358.
Turning to RRIRERPPRLPRPRPRPMTDPRP, the “shrunken log2 fold change” value is -0.131.
Regarding RRIRWRPPRLPRPRPRPATRPRP, the “shrunken log2 fold change” value was determined as 0.38.
RRIRMRPPRLPRPRPRPLSWPRP: the “shrunken log2 fold change” value came out at 0.982.
Regarding RRIRLRPPRLPRPRPRPLMAPRP, the “shrunken log2 fold change” value is -0.246.
For RRIRTRPPRLPRPRPRPRYSPRP, the “shrunken log2 fold change” value was found to be 0.0915.
Take RRIRTRPPRLPRPRPRPSHQPRP: the “shrunken log2 fold change” value worked out at 0.185.
As for RRIRPRPPRLPRPRPRPIHAPRP, the “shrunken log2 fold change” value is -0.0974.
The same measure for RRIRTRPPRLPRPRPRPIWPPRP: 0.173; for RRIRARPPRLPRPRPRPYMIPRP: -0.494.
The same measure for RRIRKRPPRLPRPRPRPCFCPRP: 0.0588; for RRIRSRPPRLPRPRPRPPFMPRP: -0.0803; for RRIRARPPRLPRPRPRPPEKPRP: 0.611.
With RRIRSRPPRLPRPRPRPAASPRP, the “shrunken log2 fold change” value was -0.0449.
The same measure for RRIRMRPPRLPRPRPRPGKQPRP: -0.00189; for RRIRERPPRLPRPRPRPTKHPRP: -0.347; for RRIRVRPPRLPRPRPRPVWAPRP: 0.394.
For the sequence RRIRNRPPRLPRPRPRPKTNPRP, the “shrunken log2 fold change” value came to 0.0551.
Take RRIRSRPPRLPRPRPRPEEPPRP: the “shrunken log2 fold change” value was found to be 0.729.
In the case of RRIRVRPPRLPRPRPRPSYSPRP, the “shrunken log2 fold change” value is -0.376.
For RRIRHRPPRLPRPRPRPPVRPRP, the “shrunken log2 fold change” value is 0.16.
Turning to RRIRHRPPRLPRPRPRPYVNPRP, the “shrunken log2 fold change” value was -0.0772.
In the case of RRIRRRPPRLPRPRPRPVISPRP, the “shrunken log2 fold change” value is 0.104.
For RRIRMRPPRLPRPRPRPTWHPRP, the “shrunken log2 fold change” value stood at 0.309.
As for RRIRDRPPRLPRPRPRPLHRPRP, the “shrunken log2 fold change” value was -0.375.
For the sequence RRIRPRPPRLPRPRPRPYETPRP, the “shrunken log2 fold change” value is -0.106.
Turning to RRIRDRPPRLPRPRPRPQQSPRP, the “shrunken log2 fold change” value was 0.0846.
Turning to RRIRQRPPRLPRPRPRPACSPRP, the “shrunken log2 fold change” value turned out to be 0.125.
Take RRIRLRPPRLPRPRPRPMTDPRP: the “shrunken log2 fold change” value was -0.189.
The value for RRIRERPPRLPRPRPRPVYVPRP was -1.11; that for RRIRWRPPRLPRPRPRPRIPPRP was 0.0219.
Take RRIRFRPPRLPRPRPRPERLPRP: the “shrunken log2 fold change” value worked out at 0.265.
Regarding RRIRPRPPRLPRPRPRPKRWPRP, the “shrunken log2 fold change” value was found to be 0.441.
The same measure for RRIRERPPRLPRPRPRPEMIPRP: -0.0286; for RRIRQRPPRLPRPRPRPRQSPRP: 0.0272; for RRIRQRPPRLPRPRPRPFQYPRP: -0.306.
As to RRIRPRPPRLPRPRPRPPFLPRP, the “shrunken log2 fold change” value came to 0.188.
RRIRRRPPRLPRPRPRPGDNPRP: the “shrunken log2 fold change” value turned out to be 0.169.
In the case of RRIRNRPPRLPRPRPRPMWGPRP, the “shrunken log2 fold change” value is -0.018.
For RRIRNRPPRLPRPRPRPEMCPRP, the “shrunken log2 fold change” value stood at 0.00911.
RRIRERPPRLPRPRPRPTGIPRP: the “shrunken log2 fold change” value was 0.0836.
Take RRIRSRPPRLPRPRPRPEFEPRP: the “shrunken log2 fold change” value stood at 0.731.
